Experimental data published in US20220098307A1 (WUHAN YZY BIOPHARMA, published 2022).
Where a chain is given by its changes, count along the chain named.

What was measured:
[1] = biological target: T1, Monkey CD3 (monkey); experiment: flow cytometry, monkey T cells
T1 construct: whole, on cells; also called CD3 of monkey CD3 positive T cells

[2] = biological target: T2, Human CD3ε (human, UniProt P07766 23-126); experiment: flow cytometry, human T cells
T2 construct: CD3 on T cells isolated from human whole blood
How it was run: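 Antigen-positive tumor cells or isolated T cells, 2×10⁵/well, 1% FBS-PBS, on ice. Ab 3000 nM top, 3-fold ×11, 2 h 4° C shaking; wash; PE anti-hIgG Fc 8 ug/ml, 1 h 4° C. FACS MFI; EC50, one site–specific binding.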

[3] = biological target: T3, Human BCMA (human, UniProt Q02223 1-54); experiment: flow cytometry, human tumor cells (table of the BCMA series)
T3 sequence: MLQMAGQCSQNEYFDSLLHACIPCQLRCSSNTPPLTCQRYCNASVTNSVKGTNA
Excerpt: (§1) 1) Cell preparation: T cells isolated from CD3-positive human whole blood were used for a CD3 end affinity detection of multifunctional antibody molecule; positive tumor cells of corresponding antigen were used for detecting affinity of tumor antigen; for example, CD38-positive MM. 1S cells (purchased from the Cell Resource Center of Shanghai Institutes for Biological Sciences, Chinese Academy of Sciences) or RPMI 8226 cells (purchased from the Cell Resource Center of Shanghai Institutes for Biological Sciences, Chinese Academy of Sciences) were used for CD38 antigen detection, and PD-L1 positive H358 cells (purchased from the Cell Resource Center of Shanghai Institutes for Biological Sciences, Chinese Academy of Sciences) were used for PD-L1 antigen detection, and so on. The cells were resuspended with 1% FBS-PBS, adjusted to a density of 4×10⁶/ml, and 50 μl of cells were taken from each well, and then plated at 2×10⁵ per well. Cell plating was operated on ice
(§2) 2) Addition of the antibody: according to the experimental design, the antibody was diluted gradually, and dilution of antibody was operated on ice. For example, the initial concentration of antibody for dilution was 3000 nM, and the antibody was diluted by 3 times with 11 concentration gradients. The diluted antibody was added to a cell well at 50 μl per well, mixed well, and shaked and incubated at 4° C. 1100 rpm/min for 2 h; after washing, the cells were resuspend in 1% FBS-PBS, and a diluted secondary antibody PE anti-human IgG FC (Biolegend, 409304) was added with a final concentration of 8 ug/ml and a volume of 50 μl/well. At the same time, a well only added with cells and secondary antibody was set as a control, the components were mixed well, and incubated under shaking at 1100 rpm/min at 4° C. for 1 h;
(§3) 5) Data analysis: the data was analyzed by a flow analysis software FlowJo 7.6 thereby obtaining an average fluorescence intensity of the specific antibody concentration, plotted by a Graphpad Prism 5 with the antibody concentration (nM) as an abscissa and the average fluorescence intensity as an ordinate; the EC50 value was calculated by the method of One site—Specific binding, and the EC50 value indicated the cell affinity of the antibody to the corresponding target antigen.

[4] = biological target: T4, human CEA (human, UniProt P06731 35-685); experiment: flow cytometry, human tumor cells (table of the CEA series)
T4 sequence: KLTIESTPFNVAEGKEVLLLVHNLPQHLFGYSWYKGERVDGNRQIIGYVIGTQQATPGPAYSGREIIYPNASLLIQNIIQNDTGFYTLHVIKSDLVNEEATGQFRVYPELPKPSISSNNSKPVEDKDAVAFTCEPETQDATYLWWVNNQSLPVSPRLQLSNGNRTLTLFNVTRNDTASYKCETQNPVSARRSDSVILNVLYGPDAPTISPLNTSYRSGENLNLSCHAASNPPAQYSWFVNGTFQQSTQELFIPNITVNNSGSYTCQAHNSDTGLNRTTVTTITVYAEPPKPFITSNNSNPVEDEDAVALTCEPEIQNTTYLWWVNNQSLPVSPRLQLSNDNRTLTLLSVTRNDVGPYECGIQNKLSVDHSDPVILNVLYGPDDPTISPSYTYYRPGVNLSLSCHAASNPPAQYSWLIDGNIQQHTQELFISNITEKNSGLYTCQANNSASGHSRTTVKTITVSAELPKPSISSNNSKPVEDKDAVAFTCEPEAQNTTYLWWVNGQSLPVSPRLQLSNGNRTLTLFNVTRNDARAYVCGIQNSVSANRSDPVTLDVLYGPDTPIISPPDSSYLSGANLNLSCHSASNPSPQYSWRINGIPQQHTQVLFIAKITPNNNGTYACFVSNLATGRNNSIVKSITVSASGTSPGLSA
Excerpt: as §1, §2, §3

B1: M2IC-DG2D (bispecific antibody, human IgG1, kappa)
chain: EVKLDETGGGLVQPGRPMKLSCVASGFTFSDYWMNWVRQSPEKGLEWVAQIRNKPYNYETYYSDSVKGRFTISRDDSKSSVYLQMNNLRVEDMGIYYCTGSYYGMDYWGQGTSVTVSSASTKGPSVFPLAPSSKSTSGGTAALGCLVKDYFPEPVTVSWNSGALTSGVHTFPAVLQSSGLYSLSSVVTVPSSSLGTQTYICNVNHKPSNTKVDKKVEPKSCDKTHTGGGSAAAQVQLVESGGGVVQPGRSLRLSCAASGFTFSTYAMNWVRQAPGKGLEWVARIRSKYNNYATYYADSVKDRFTISRDDSKNTLYLQMNSLRAEDTAVYYCARHGNFGNSYVSWFAYWGQGTLVTVSSGGGGSGGGGSGGGGSQTVVTQEPSLTVSPGGTVTLTCRSSTGAVTTSNYANWVQQKPGQAPRGLIGGTNKRAPGVPARFSGSLLGGKAALTLSGVQPEDEAEYYCALWYSNLWVFGGGTKVEIKGGGGSDKTHTCPPCPAPPVAGPSVFLFPPKPKDTLMISRTPEVTCVVVAVSHEAPEVQFNWYVDGVEVHNAKTKPREEQFNSTFRVVSVLTVVHQDWLNGKEYKCKVSNKGLPAPIEKTISKTKGQPREPQVYTLPPCRDELTKNQVSLWCLVKGFYPSDIAVEWESNGQPENNYKTTPPVLDSDGSFFLYSKLTVDKSRWQQGNVFSCSVMHEALHNHYTQKSLSLSPGK
heavy: EVKLDETGGGLVQPGRPMKLSCVASGFTFSDYWMNWVRQSPEKGLEWVAQIRNKPYNYETYYSDSVKGRFTISRDDSKSSVYLQMNNLRVEDMGIYYCTGSYYGMDYWGQGTSVTVSSASTKGPSVFPLAPSSKSTSGGTAALGCLVKDYFPEPVTVSWNSGALTSGVHTFPAVLQSSGLYSLSSVVTVPSSSLGTQTYICNVNHKPSNTKVDKKVEPKSCDKTHTCPPCPAPPVAGPSVFLFPPKPKDTLMISRTPEVTCVVVAVSHEAPEVQFNWYVDGVEVHNAKTKPREEQFNSTFRVVSVLTVVHQDWLNGKEYKCKVSNKGLPAPIEKTISKTKGQPREPQVCTLPPSRDELTKNQVSLSCAVKGFYPSDIAVEWESNGQPENNYKTTPPVLDSDGSFFLVSKLTVDKSRWQQGNVFSCSVMHEALHNRFTQKSLSLSPGK
light: DVVMTQTPLSLPVSLGDQASISCRSSQSLVHSNGNTYLRWYLQKPGQSPKVLIYKVSNRFSGVPDRFSGSGSGTDFTLKISRVEAEDLGVYFCSQSTHVPWTFGGGTKLEIKRTVAAPSVFIFPPSDEQLKSGTASVVCLLNNFYPREAKVQWKVDNALQSGNSQESVTEQDSKDSTYSLSSTLTLSKADYEKHKVYACEVTHQGLSSPVTKSFNRGEC
notes: structure 2 isotype control; CH2 DG2DCH2
- EC50 [1]: 519 nM
- EC50 [2]: 452 nM
- binding result [3]: no binding

B2: M3IC-G2 (bispecific antibody)
chain 1: EVKLDETGGGLVQPGRPMKLSCVASGFTFSDYWMNWVRQSPEKGLEWVAQIRNKPYNYETYYSDSVKGRFTISRDDSKSSVYLQMNNLRVEDMGIYYCTGSYYGMDYWGQGTSVTVSSASTKGPSVFPLAPSSKSTSGGTAALGCLVKDYFPEPVTVSWNSGALTSGVHTFPAVLQSSGLYSLSSVVTVPSSSLGTQTYICNVNHKPSNTKVDKKVEPKSCGGGGSGGGGSQVQLVESGGGVVQPGRSLRLSCAASGFTFSTYAMNWVRQAPGKGLEWVARIRSKYNNYATYYADSVKDRFTISRDDSKNTLYLQMNSLRAEDTAVYYCARHGNFGNSYVSWFAYWGQGTLVTVSSASVAAPSVFIFPPSDEQLKSGTASVVCLLNNFYPREAKVQWKVDNALQSGNSQESVTEQDSKDSTYSLSSTLTLSKADYEKHKVYACEVTHQGLSSPVTKSFNRGECDKTHTCPPCPAPPVAGPSVFLFPPKPKDTLMISRTPEVTCVVVDVSHEDPEVQFNWYVDGVEVHNAKTKPREEQFNSTFRVVSVLTVVHQDWLNGKEYKCKVSNKGLPAPIEKTISKTKGQPREPQVYTLPPCRDELTKNQVSLWCLVKGFYPSDIAVEWESNGQPENNYKTTPPVLDSDGSFFLYSKLTVDKSRWQQGNVFSCSVMHEALHNHYTQKSLSLSPGK
chain 2: QTVVTQEPSLTVSPGGTVTLTCRSSTGAVTTSNYANWVQQKPGQAPRGLIGGTNKRAPGVPARFSGSLLGGKAALTLSGVQPEDEAEYYCALWYSNLWVFGGGTKVEIKSSASTKGPSVFPLAPSSKSTSGGTAALGCLVKDYFPEPVTVSWNSGALTSGVHTFPAVLQSSGLYSLSSVVTVPSSSLGTQTYICNVNHKPSNTKVDKKVEPKSC
heavy: B1 heavy with A265D, A270D
light: B1 light
notes: structure 3 isotype control; CH2 G2CH2
- binding result [4]: no binding
- EC50 [2]: 701 nM

B3: M2IC-PG2 (bispecific antibody, human IgG1, kappa)
chain: B1 chain with C496P, A531D, A536D
heavy: B1 heavy with C230P, A265D, A270D
light: B1 light
notes: structure 2 isotype control; CH2 PG2CH2
- EC50 [1]: 656 nM
- EC50 [2]: 467 nM
- binding result [3]: no binding

B4: M2IC-G2D (bispecific antibody, human IgG1, kappa)
chain: B1 chain with A531D
heavy: B1 heavy with A265D
light: B1 light
notes: structure 2 isotype control; CH2 G2DCH2
- EC50 [1]: 538 nM
- EC50 [2]: 367 nM
- binding result [3]: no binding

B5: M2IC-SG2 (bispecific antibody, human IgG1, kappa)
chain: B1 chain with C496S, A531D, A536D
heavy: B1 heavy with C230S, A265D, A270D
light: B1 light
notes: structure 2 isotype control; CH2 SG2CH2
- EC50 [1]: 525 nM
- EC50 [2]: 481 nM
- binding result [3]: no binding

B6: M3IC-DG2D (bispecific antibody)
chain 1: B2 chain 1 with D507A, D512A
chain 2: B2 chain 2
heavy: B1 heavy
light: B1 light
notes: structure 3 isotype control; CH2 DG2DCH2
- binding result [4]: no binding
- EC50 [2]: 638 nM

B7: M3IC-DG2 (bispecific antibody)
chain 1: B2 chain 1 with D507A
chain 2: B2 chain 2
heavy: B1 heavy with A270D
light: B1 light
notes: structure 3 isotype control; CH2 DG2CH2
- binding result [4]: no binding
- EC50 [2]: 710 nM

B8: M2IC-GG2 (bispecific antibody, human IgG1, kappa)
chain: B1 chain with C496G, A531D, A536D
heavy: B1 heavy with C230G, A265D, A270D
light: B1 light
notes: structure 2 isotype control; CH2 GG2CH2
- EC50 [1]: 538 nM
- EC50 [2]: 556 nM
- binding result [3]: no binding

B9: M3IC-GG2 (bispecific antibody)
chain 1: B2 chain 1 with C472G
chain 2: B2 chain 2
heavy: B1 heavy with C230G, A265D, A270D
light: B1 light
notes: structure 3 isotype control; CH2 GG2CH2
- binding result [4]: no binding
- EC50 [2]: 609 nM

B10: M3IC-AG2 (bispecific antibody)
chain 1: B2 chain 1 with C472A
chain 2: B2 chain 2
heavy: B1 heavy with C230A, A265D, A270D
light: B1 light
notes: structure 3 isotype control; CH2 AG2CH2
- binding result [4]: no binding
- EC50 [2]: 674 nM

B11: M3IC-G2D (bispecific antibody)
chain 1: B2 chain 1 with D512A
chain 2: B2 chain 2
heavy: B1 heavy with A265D
light: B1 light
notes: structure 3 isotype control; CH2 G2DCH2
- binding result [4]: no binding
- EC50 [2]: 607 nM

B12: M3IC-PG2 (bispecific antibody)
chain 1: B2 chain 1 with C472P
chain 2: B2 chain 2
heavy: B1 heavy with C230P, A265D, A270D
light: B1 light
notes: structure 3 isotype control; CH2 PG2CH2
- binding result [4]: no binding
- EC50 [2]: 696 nM
